Series [1] concerns the target T1, alpha-thrombin (human, UniProt P00734;P00734 328-363;364-622). The series can be described thus: SPRi.
The target of series [2] is T1, alpha-thrombin. As to the kind of experiment: BLI.
Series [3] deals with T1, alpha-thrombin. The series can be described thus: BLI. The source holds these as a separate data set. On the technique in general: In BLI a coated tip is dipped into the sample, and binding shifts an interference pattern.
Another series deals with T2, VEGF164 (mouse, UniProt Q00731-2 27-190).
T2 sequence: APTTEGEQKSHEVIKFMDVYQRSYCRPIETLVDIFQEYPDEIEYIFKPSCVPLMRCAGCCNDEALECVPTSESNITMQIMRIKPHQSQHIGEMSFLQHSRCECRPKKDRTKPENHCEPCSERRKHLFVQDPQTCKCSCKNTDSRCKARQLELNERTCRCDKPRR
As to the kind of experiment: BLI.

For a further series, the target named is VEGF165 (human, UniProt P15692-4 27-191). As to the kind of experiment: BLI.
The target of a further series is MAPK1 (UniProt P28482 1-360). As to the kind of experiment: BLI.
MAPK1, sequence (P28482 whole entry): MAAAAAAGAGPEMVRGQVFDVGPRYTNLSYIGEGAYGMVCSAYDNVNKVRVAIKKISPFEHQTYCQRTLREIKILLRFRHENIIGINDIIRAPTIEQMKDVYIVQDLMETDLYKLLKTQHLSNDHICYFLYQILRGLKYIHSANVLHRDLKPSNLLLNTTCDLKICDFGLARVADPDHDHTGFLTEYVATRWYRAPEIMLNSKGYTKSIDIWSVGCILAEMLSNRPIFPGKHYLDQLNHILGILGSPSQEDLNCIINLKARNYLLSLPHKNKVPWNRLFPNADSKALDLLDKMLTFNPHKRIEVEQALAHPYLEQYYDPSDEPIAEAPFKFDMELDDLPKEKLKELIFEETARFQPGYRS
The target in series [4] is T1, alpha-thrombin. As to the kind of experiment: BLI. This is another data set of the same source.

From publication PMC5041495 come the findings set out here.

B1: AF113-18 (structured_RNA)
RNA: GGGAACAAAGCUGAAGUACUUACCC
modifications: 2'-F pyrimidines; PS2 at 3'-phosphate of U17
For B1, the Kd (usually the constant that tells how readily two partners part at equilibrium) with alpha-thrombin [1] was 4.5 ± 0.2 pM; with alpha-thrombin [2] it was 1 ± 0.1 pM; with alpha-thrombin [3] it was 1.8 ± 0.2 pM. For the same molecule, the binding result with VEGF164, with VEGF165 and with MAPK1 was “no binding” in each case.

B2: AF113-1 (structured_RNA)
RNA: GGGAACAAAGCUGAAGUACUUACCC
modifications: 2'-F pyrimidines (from crystal construct; ST-2 not in material)
As for B2, the binding result with VEGF164, with VEGF165 and in the series with MAPK1 was “no binding” in each case. In the series with alpha-thrombin [4], this molecule returned a Kd of 1870 ± 36 pM.
